The record followed here is the supplement of paper PMC9112550, “Optimization of the antimicrobial peptide Bac7 by deep mutational scanning” (BMC Biology, 2022).

In this data set the test system is Escherichia coli TOP10. In words: shrunken log2 fold change of peptide-encoding DNA abundance (4.5 h post-induction vs induction); higher = less antimicrobial activity (less host growth inhibition). The conditions noted are these: time post-induction: 4.5 h; library: site-saturation at positions 5, 18, 19, 20.
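Also: peptides expressed intracellularly from a pBAD plasmid library in pooled LB shake-flask culture, induced with 0.3% L-arabinose, DNA abundance read by NGS, three biological replicates, DESeq2 with apeglm shrinkage.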

With RRIRDRPPRLPRPRPRPKREPRP, the “shrunken log2 fold change” value is -0.024.
In the case of RRIRKRPPRLPRPRPRPMYAPRP it was -0.145; in that of RRIRHRPPRLPRPRPRPDCDPRP, -0.243.
As to RRIRGRPPRLPRPRPRPTIKPRP, the “shrunken log2 fold change” value stood at 0.48.
To RRIRHRPPRLPRPRPRPDFCPRP belongs -0.0801; to RRIRERPPRLPRPRPRPREMPRP, 0.203; to RRIRYRPPRLPRPRPRPIRFPRP, -0.0383.
To RRIRIRPPRLPRPRPRPNMVPRP belongs -0.383; to RRIRARPPRLPRPRPRPQKDPRP, 0.0524.
In the case of RRIRTRPPRLPRPRPRPRMSPRP it was -0.259; in that of RRIRHRPPRLPRPRPRPMGCPRP, -0.000946; in that of RRIRNRPPRLPRPRPRPYCYPRP, -1.44.
As to RRIRSRPPRLPRPRPRPTQHPRP, the “shrunken log2 fold change” value amounted to 0.376.
Regarding RRIRQRPPRLPRPRPRPVKHPRP, the “shrunken log2 fold change” value is -0.629.
To RRIRMRPPRLPRPRPRPAAEPRP belongs 2.71; to RRIRKRPPRLPRPRPRPFPVPRP, -0.288.
To RRIRVRPPRLPRPRPRPITCPRP belongs -0.324; to RRIRARPPRLPRPRPRPNNEPRP, -0.14; to RRIRLRPPRLPRPRPRPEVTPRP, -0.046.
In the case of RRIRYRPPRLPRPRPRPCTAPRP, the “shrunken log2 fold change” value is -1.4.
In the case of RRIRGRPPRLPRPRPRPLNDPRP, the “shrunken log2 fold change” value came out at 0.388.
In the case of RRIRPRPPRLPRPRPRPKCHPRP it was 0.0622.
As to RRIRTRPPRLPRPRPRPIYPPRP, the “shrunken log2 fold change” value was -0.243.
As to RRIRTRPPRLPRPRPRPGVDPRP, the “shrunken log2 fold change” value came to 0.0151.
For RRIRFRPPRLPRPRPRPEWSPRP, the “shrunken log2 fold change” value came to 0.219.
To RRIRRRPPRLPRPRPRPGGQPRP belongs 0.175; to RRIRIRPPRLPRPRPRPLSFPRP, -0.687; to RRIRERPPRLPRPRPRPSNHPRP, -0.91.
As to RRIRRRPPRLPRPRPRPEKWPRP, the “shrunken log2 fold change” value was -0.00174.
To RRIRGRPPRLPRPRPRPPHNPRP belongs 0.585; to RRIRCRPPRLPRPRPRPALSPRP, 0.282; to RRIRFRPPRLPRPRPRPQQPPRP, -0.00359.
On to RRIRRRPPRLPRPRPRPAWQPRP, for which the “shrunken log2 fold change” value came out at 0.561.
As to RRIRARPPRLPRPRPRPNSAPRP, the “shrunken log2 fold change” value came out at 0.00853.
Consider RRIRKRPPRLPRPRPRPNLNPRP, for which the “shrunken log2 fold change” value is -0.356.
Turning to RRIRYRPPRLPRPRPRPYFAPRP, the “shrunken log2 fold change” value is -0.796.
For the sequence RRIRWRPPRLPRPRPRPLKNPRP, the “shrunken log2 fold change” value turned out to be 0.245.
On to RRIRARPPRLPRPRPRPVKCPRP, for which the “shrunken log2 fold change” value was determined as 0.03.
Consider RRIRHRPPRLPRPRPRPYLYPRP, for which the “shrunken log2 fold change” value is -0.482.
To RRIRYRPPRLPRPRPRPFHEPRP belongs -0.245.
In the case of RRIRRRPPRLPRPRPRPPVEPRP it was 0.593; in that of RRIRGRPPRLPRPRPRPIYIPRP, -0.0529.
Take RRIRHRPPRLPRPRPRPTKWPRP: the “shrunken log2 fold change” value worked out at 0.0132.
Regarding RRIRVRPPRLPRPRPRPQRTPRP, the “shrunken log2 fold change” value was -0.0863.
In the case of RRIRQRPPRLPRPRPRPVPAPRP it was 0.475.
For the sequence RRIRSRPPRLPRPRPRPGLYPRP, the “shrunken log2 fold change” value was -0.106.
To RRIRERPPRLPRPRPRPTSHPRP belongs -0.239; to RRIRSRPPRLPRPRPRPCEGPRP, -0.00992; to RRIRHRPPRLPRPRPRPDHCPRP, 0.0278.
In the case of RRIRERPPRLPRPRPRPFSRPRP it was -0.0038; in that of RRIRDRPPRLPRPRPRPHNKPRP, -0.373.
As to RRIRSRPPRLPRPRPRPFFGPRP, the “shrunken log2 fold change” value came to 0.148.
To RRIRPRPPRLPRPRPRPTHGPRP belongs 0.478.
To RRIRVRPPRLPRPRPRPCVDPRP belongs -0.0658; to RRIRDRPPRLPRPRPRPHFDPRP, 0.141.
In the case of RRIRCRPPRLPRPRPRPTSAPRP it was 0.18; in that of RRIRVRPPRLPRPRPRPIEMPRP, -0.267; in that of RRIRCRPPRLPRPRPRPFKIPRP, -0.6.
With RRIRLRPPRLPRPRPRPGCFPRP, the “shrunken log2 fold change” value worked out at 0.269.
As to RRIRNRPPRLPRPRPRPCWFPRP, the “shrunken log2 fold change” value was -0.00192.
To RRIRFRPPRLPRPRPRPAAWPRP belongs 0.28; to RRIRVRPPRLPRPRPRPRCLPRP, -0.16.
In the case of RRIRFRPPRLPRPRPRPPNRPRP it was 0.266; in that of RRIRPRPPRLPRPRPRPCVRPRP, 0.14.
In the case of RRIRGRPPRLPRPRPRPIQEPRP it was 0.416; in that of RRIRFRPPRLPRPRPRPGKTPRP, -0.142.
With RRIRRRPPRLPRPRPRPQIFPRP, the “shrunken log2 fold change” value is -0.0198.
In the case of RRIRVRPPRLPRPRPRPDYEPRP it was 0.0678.
To RRIRRRPPRLPRPRPRPAWYPRP belongs 0.176; to RRIRSRPPRLPRPRPRPYMSPRP, -0.355; to RRIRQRPPRLPRPRPRPFELPRP, -0.113.
To RRIRPRPPRLPRPRPRPGSIPRP belongs -0.261.
With RRIRRRPPRLPRPRPRPNWNPRP, the “shrunken log2 fold change” value was -0.115.
As to RRIRLRPPRLPRPRPRPGQAPRP, the “shrunken log2 fold change” value turned out to be 0.39.
As to RRIRNRPPRLPRPRPRPCRLPRP, the “shrunken log2 fold change” value was -0.0199.
To RRIRPRPPRLPRPRPRPKYGPRP belongs -0.491; to RRIRERPPRLPRPRPRPWMIPRP, -0.616.
In the case of RRIRKRPPRLPRPRPRPMNAPRP it was 0.228; in that of RRIRQRPPRLPRPRPRPLGKPRP, -0.0227; in that of RRIRNRPPRLPRPRPRPKTAPRP, -0.232.
To RRIRRRPPRLPRPRPRPARRPRP belongs 0.546.
As to RRIRYRPPRLPRPRPRPPERPRP, the “shrunken log2 fold change” value came to 0.251.
In the case of RRIRDRPPRLPRPRPRPWPLPRP it was 0.00172; in that of RRIRLRPPRLPRPRPRPYIQPRP, -0.337; in that of RRIRSRPPRLPRPRPRPGLEPRP, 0.00456.
In the case of RRIRFRPPRLPRPRPRPARMPRP it was 0.296.
Take RRIRYRPPRLPRPRPRPTGWPRP: the “shrunken log2 fold change” value is 0.088.
For RRIRWRPPRLPRPRPRPHFRPRP, the “shrunken log2 fold change” value was 0.0695.
For the sequence RRIRARPPRLPRPRPRPCYAPRP, the “shrunken log2 fold change” value was -0.26.
RRIRGRPPRLPRPRPRPSSIPRP: the “shrunken log2 fold change” value turned out to be 0.0764.
Consider RRIRLRPPRLPRPRPRPIIHPRP, for which the “shrunken log2 fold change” value is -0.186.
RRIRGRPPRLPRPRPRPNERPRP: the “shrunken log2 fold change” value came to 0.108.
With RRIRTRPPRLPRPRPRPKVRPRP, the “shrunken log2 fold change” value is 0.0294.
On to RRIRFRPPRLPRPRPRPHNSPRP, for which the “shrunken log2 fold change” value was -0.194.
Take RRIRQRPPRLPRPRPRPEKKPRP: the “shrunken log2 fold change” value was -0.0138.
To RRIRSRPPRLPRPRPRPDFYPRP belongs -0.0521.
RRIRYRPPRLPRPRPRPFDMPRP: the “shrunken log2 fold change” value was -0.195.
In the case of RRIRTRPPRLPRPRPRPKKIPRP, the “shrunken log2 fold change” value was -0.437.
To RRIRDRPPRLPRPRPRPRYRPRP belongs -0.101.
To RRIRQRPPRLPRPRPRPFPRPRP belongs -0.122.
For the sequence RRIRVRPPRLPRPRPRPVQRPRP, the “shrunken log2 fold change” value was 0.167.
To RRIRCRPPRLPRPRPRPRTQPRP belongs 0.323; to RRIRFRPPRLPRPRPRPGWAPRP, 0.187; to RRIRNRPPRLPRPRPRPLAVPRP, 0.0686.
On to RRIRYRPPRLPRPRPRPPQHPRP, for which the “shrunken log2 fold change” value is -0.171.
To RRIRYRPPRLPRPRPRPSMVPRP belongs -0.858.
Consider RRIRSRPPRLPRPRPRPDVRPRP, for which the “shrunken log2 fold change” value was determined as 0.0647.
As for RRIRARPPRLPRPRPRPYFVPRP, the “shrunken log2 fold change” value was -0.122.
Take RRIRNRPPRLPRPRPRPRLIPRP: the “shrunken log2 fold change” value worked out at 0.0319.
In the case of RRIRNRPPRLPRPRPRPWDYPRP it was -0.0686; in that of RRIRIRPPRLPRPRPRPFIWPRP, -0.242.
Take RRIRYRPPRLPRPRPRPCSKPRP: the “shrunken log2 fold change” value was -0.012.
Regarding RRIRPRPPRLPRPRPRPCFDPRP, the “shrunken log2 fold change” value was 0.0273.
In the case of RRIRRRPPRLPRPRPRPGEFPRP it was -0.0272.
To RRIRCRPPRLPRPRPRPYCFPRP belongs -0.783; to RRIRYRPPRLPRPRPRPIIAPRP, -1.18.
Turning to RRIRERPPRLPRPRPRPQKKPRP, the “shrunken log2 fold change” value came to 0.0196.
To RRIRQRPPRLPRPRPRPSFGPRP belongs 0.0622.
In the case of RRIRQRPPRLPRPRPRPSHNPRP it was 0.547; in that of RRIRHRPPRLPRPRPRPETCPRP, -0.0251.
As for RRIRDRPPRLPRPRPRPEPFPRP, the “shrunken log2 fold change” value was -0.137.
As for RRIRDRPPRLPRPRPRPLIVPRP, the “shrunken log2 fold change” value worked out at 0.173.
In the case of RRIRTRPPRLPRPRPRPYSMPRP it was -2.42.
To RRIRMRPPRLPRPRPRPQQCPRP belongs 0.143.
Regarding RRIRVRPPRLPRPRPRPRCFPRP, the “shrunken log2 fold change” value is 0.05.
